Measured values published in paper PMC10397247.
Like-named read-outs stand apart in the source and are kept apart here.

T1: 4H906-AA
T1 chain: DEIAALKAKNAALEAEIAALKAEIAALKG

T2: 4H566-AA
T2 chain: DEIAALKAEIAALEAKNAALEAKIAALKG

T3: 4H780-AA
T3 chain: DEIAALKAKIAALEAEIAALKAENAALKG

T4: 4H794-AA
T4 chain: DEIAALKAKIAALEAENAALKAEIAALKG

T5: 4H342-AA
T5 chain: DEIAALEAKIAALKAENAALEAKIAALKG

T6: 4H3427-AA
T6 chain: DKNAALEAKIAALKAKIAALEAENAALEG

T7: 4H335-AA
T7 chain: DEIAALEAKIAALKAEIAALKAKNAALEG

T8: 4H48-AA
T8 chain: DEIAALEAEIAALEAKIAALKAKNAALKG

T9: 4H3921-AA
T9 chain: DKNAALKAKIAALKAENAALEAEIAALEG

T10: 4H429-AA
T10 chain: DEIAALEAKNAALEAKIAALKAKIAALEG

T11: 4H717-AA
T11 chain: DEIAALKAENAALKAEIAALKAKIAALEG

T12: 4H605-AA
T12 chain: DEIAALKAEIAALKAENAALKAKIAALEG

T13: 4H2837-AA
T13 chain: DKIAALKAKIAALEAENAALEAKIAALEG

T14: 4H317-AA
T14 chain: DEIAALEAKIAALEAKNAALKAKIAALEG

T15: 4H2883-AA
T15 chain: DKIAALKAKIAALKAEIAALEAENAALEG

T16: 4H3343-AA
T16 chain: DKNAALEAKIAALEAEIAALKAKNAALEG

T17: 4H454-AA
T17 chain: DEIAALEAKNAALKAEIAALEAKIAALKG

T18: 4H3112-AA
T18 chain: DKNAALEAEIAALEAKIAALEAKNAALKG

T19: 4H3627-AA
T19 chain: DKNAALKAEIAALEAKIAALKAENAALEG

T20: 4H3655-AA
T20 chain: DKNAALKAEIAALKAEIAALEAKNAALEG

T21: 4H3844-AA
T21 chain: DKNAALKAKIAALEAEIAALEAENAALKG

T22: 4H2944-AA
T22 chain: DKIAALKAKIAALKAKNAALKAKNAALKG

T23: 4H993-AA
T23 chain: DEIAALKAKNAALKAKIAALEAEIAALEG

T24: 4H3606-AA
T24 chain: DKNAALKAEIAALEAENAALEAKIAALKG

T25: 4H2754-AA
T25 chain: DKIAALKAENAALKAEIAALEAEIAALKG

T26: 4H2949-AA
T26 chain: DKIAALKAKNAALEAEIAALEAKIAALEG

T27: 4H881-AA
T27 chain: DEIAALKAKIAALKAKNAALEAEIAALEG

T28: 4H678-AA
T28 chain: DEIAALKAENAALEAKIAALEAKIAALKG

T29: 4H949-bA
T29 chain: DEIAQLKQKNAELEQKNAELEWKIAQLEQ

T30: 4H932-bN
T30 chain: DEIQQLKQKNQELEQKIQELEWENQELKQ

T31: 4H949-bN
T31 chain: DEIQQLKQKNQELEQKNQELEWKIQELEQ


Assays:
4H906-AA = molecular target: T1, 4H906-AA; assay: two-hybrid library CCmax; conditions: mean of both orientations;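 further: natural log of median RNA to DNA barcode read ratio; higher means stronger binding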
4H566-AA = molecular target: T2, 4H566-AA; assay: two-hybrid library CCmax; conditions: mean of both orientations;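 further: natural log of median RNA to DNA barcode read ratio; higher means stronger binding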
4H780-AA = molecular target: T3, 4H780-AA; assay: two-hybrid library CCmax; conditions: mean of both orientations;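 further: natural log of median RNA to DNA barcode read ratio; higher means stronger binding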
4H794-AA = molecular target: T4, 4H794-AA; assay: two-hybrid library CCmax; conditions: mean of both orientations;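 further: natural log of median RNA to DNA barcode read ratio; higher means stronger binding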
4H342-AA = molecular target: T5, 4H342-AA; assay: two-hybrid library CCmax; conditions: mean of both orientations
4H3427-AA = molecular target: T6, 4H3427-AA; assay: two-hybrid library CCmax; conditions: mean of both orientations
4H335-AA = molecular target: T7, 4H335-AA; assay: two-hybrid library CCmax; conditions: mean of both orientations
4H48-AA = molecular target: T8, 4H48-AA; assay: two-hybrid library CCmax; conditions: mean of both orientations
4H3921-AA = molecular target: T9, 4H3921-AA; assay: two-hybrid library CCmax; conditions: mean of both orientations
4H429-AA = molecular target: T10, 4H429-AA; assay: two-hybrid library CCmax; conditions: mean of both orientations
4H717-AA = molecular target: T11, 4H717-AA; assay: two-hybrid library CCmax; conditions: mean of both orientations
4H605-AA = molecular target: T12, 4H605-AA; assay: two-hybrid library CCmax; conditions: mean of both orientations
4H2837-AA = molecular target: T13, 4H2837-AA; assay: two-hybrid library CCmax
4H317-AA = molecular target: T14, 4H317-AA; assay: two-hybrid library CCmax; conditions: mean of both orientations
4H2883-AA = molecular target: T15, 4H2883-AA; assay: two-hybrid library CCmax
4H3343-AA = molecular target: T16, 4H3343-AA; assay: two-hybrid library CCmax; conditions: mean of both orientations
4H454-AA = molecular target: T17, 4H454-AA; assay: two-hybrid library CCmax; conditions: mean of both orientations
4H3112-AA = molecular target: T18, 4H3112-AA; assay: two-hybrid library CCmax; conditions: mean of both orientations
4H3627-AA = molecular target: T19, 4H3627-AA; assay: two-hybrid library CCmax; conditions: mean of both orientations
4H3655-AA = molecular target: T20, 4H3655-AA; assay: two-hybrid library CCmax; conditions: mean of both orientations
4H3844-AA = molecular target: T21, 4H3844-AA; assay: two-hybrid library CCmax; conditions: mean of both orientations
4H2944-AA = molecular target: T22, 4H2944-AA; assay: two-hybrid library CCmax; conditions: mean of both orientations
4H993-AA = molecular target: T23, 4H993-AA; assay: two-hybrid library CCmax; conditions: mean of both orientations
4H3606-AA = molecular target: T24, 4H3606-AA; assay: two-hybrid library CCmax; conditions: mean of both orientations
4H2754-AA = molecular target: T25, 4H2754-AA; assay: two-hybrid library CCmax
4H2949-AA = molecular target: T26, 4H2949-AA; assay: two-hybrid library CCmax; conditions: mean of both orientations
4H881-AA = molecular target: T27, 4H881-AA; assay: two-hybrid library CCmax; conditions: mean of both orientations
4H678-AA = molecular target: T28, 4H678-AA; assay: two-hybrid library CCmax; conditions: mean of both orientations
4H949-bA = molecular target: T29, 4H949-bA; assay: two-hybrid library CCNG1
4H932-bN = molecular target: T30, 4H932-bN; assay: two-hybrid library CCNG1
4H949-bN = molecular target: T31, 4H949-bN; assay: two-hybrid library CCNG1

interaction score (4H906-AA)	interaction score (4H566-AA)	interaction score (4H780-AA)	interaction score (4H794-AA)	interaction score (4H342-AA)	interaction score (4H3427-AA)	interaction score (4H335-AA)	interaction score (4H48-AA)	interaction score (4H3921-AA)	interaction score (4H429-AA)	interaction score (4H717-AA)	interaction score (4H605-AA)	interaction score (4H317-AA)	interaction score (4H3343-AA)	interaction score (4H454-AA)	interaction score (4H3112-AA)	interaction score (4H3627-AA)	interaction score (4H3655-AA)	interaction score (4H3844-AA)	interaction score (4H2944-AA)	Binder	other results
-0.0753	-1.09	-1.74	-1.89	0.684	-1.7	-0.745	-1.2	-0.732	0.608	0.757	-1.51	-1.23	-1.26	2.24	-1.52	-1.36	-1.51	-1.53	-1.87	DKIAALKAENAALKAEIAALEAEIAALKG [4H2754-AA]	interaction score (4H2837-AA; mean of both orientations): -0.727; interaction score (4H2883-AA; mean of both orientations): -0.999; interaction score (4H993-AA): 1.43; interaction score (4H3606-AA): 0.688; interaction score (4H2754-AA): 2.15; interaction score (4H2949-AA): -1.05; interaction score (4H881-AA): 1.13; interaction score (4H678-AA): 1.82
-0.599	1.66	-1.81	0.0291	2.11	-2.38	-0.534	0.24	-1.49	0.476	-0.861	0.402	1.61	-1.14	-0.102	1.23	-1.3	-0.923	-1.21	0.691	DKIAALKAKIAALEAENAALEAKIAALEG [4H2837-AA]	interaction score (4H2837-AA): 1.42; interaction score (4H2883-AA): -0.938; interaction score (4H993-AA): 1.44; interaction score (4H3606-AA): -1.14; interaction score (4H2949-AA): -0.836; interaction score (4H881-AA): 1.65; interaction score (4H678-AA): -1.18
–	–	–	–	–	–	–	–	–	–	–	–	–	–	–	–	–	–	–	–	DEIAQLKQKNAELEQKNAELEWKIAQLEQ [4H949-bA]	interaction score (4H949-bA): -0.253
–	–	–	–	–	–	–	–	–	–	–	–	–	–	–	–	–	–	–	–	DEIQQLKQKNQELEQKIQELEWENQELKQ [4H932-bN]	interaction score (4H932-bN): 1.01; interaction score (4H949-bN): -1.08
